B1: E1B 55 kDa protein (Human adenovirus C serotype 5 (HAdV-5)), P03243-1 (parent)
chain: MERRNPSERGVPAGFSGHASVESGCETQESPATVVFRPPGDNTDGGAAAAAGGSQAAAAGAEPMEPESRPGPSGMNVVQVAELYPELRRILTITEDGQGLKGVKRERGACEATEEARNLAFSLMTRHRPECITFQQIKDNCANELDLLAQKYSIEQLTTYWLQPGDDFEEAIRVYAKVALRPDCKYKISKLVNIRNCCYISGNGAEVEIDTEDRVAFRCSMINMWPGVLGMDGVVIMNVRFTGPNFSGTVFLANTNLILHGVSFYGFNNTCVEAWTDVRVRGCAFYCCWKGVVCRPKSRASIKKCLFERCTLGILSEGNSRVRHNVASDCGCFMLVKSVAVIKHNMVCGNCEDRASQMLTCSDGNCHLLKTIHVASHSRKAWPVFEHNILTRCSLHLGNRRGVFLPYQCNLSHTKILLEPESMSKVNLNGVFDMTMKIWKVLRYDETRTRCRPCECGGKHIRNQPVMLDVTEELRPDHLVLACTRAEFGSSDEDTD

Variants of: B1
Conditions: with PML

| Variant | effect of a mutation on the interaction |
| --- | --- |
| V103D | disrupting interaction |
| K104R | disrupting interaction |

Variants of: B1
Conditions: with pml_human PML

| Variant | effect of a mutation on the interaction |
| --- | --- |
| K104R | disrupting interaction |

— IntAct's records for PubMed 20639899
